Data published in US8344120B2, “Nucleic acid molecules encoding rage fusion proteins” (TransTech Pharma, Inc., priority 2006, dated 2013).
Where “and” joins values, the source holds several entries; their conditions need not be identical. Equal entries are not always repeated.

Tests used:
[1] = test system: allogeneic rejection of transplanted islet cells; test: Allogeneic islet transplantation in diabetic B6 mice; assay type: in vivo; conditions: for day of graft loss for each animal: BALB/c islets in B6 mice; for day of graft loss, Mean: n 8
Description: C57BL/6J (6-8 week old) (B6) mice were made diabetic by a single intravenous injection of streptozotocin (STZ) (Sigma Chemical Co., St. Louis, Mo.) at 200 mg/kg.
BALB/cJ (6-8 week old) (BALB) mice served as donors for islet transplantation, thus providing an allo-mismatch for islet transplants.
Mice (BALB/c) were anesthetized with ketamine HCl/xylazine HCl solution (Sigma, St. Louis Mo.). After intraductal injection of 3 ml of cold Hank's balanced salt solution (HBSS, Gibco, Grand Island N.Y.) containing 1.5 mg/ml of collagenase P (Roche Diagnostics, Branchburg, N.J.), pancreata were surgically procured and digested at 37° C. for 20 mins. Islets were washed with HBSS and purified by discontinuous gradient centrifugation using Polysucrose 400 (Cellgro, Herndon Va.) having four different densities (26%, 23%, 20%, and 11%). The tissue fragments at the interface of the 20% and 23% layers were collected, washed and resuspended in HBSS. Individual islets, free of attached acinar, vascular and ductal tissues were handpicked under an inverted microscope, yielding highly purified islets for transplantation.
Streptozotocin-induced diabetic C57BL/6 (B6) mice received islet grafts within 2 days of the diagnosis of diabetes. BALB/cJ (6-8 week old) (BALB) mice served as donors for allogeneic islet transplantation. For transplantation, 500-600 freshly isolated islets (i.e., approximately 550 islet equivalents) from donor mice were picked up with an infusion set and transplanted into the subcapular space of the right kidney of a recipient.
Test compounds were administered as soon as the islets were transplanted; administration continued for about 60 days, depending upon how the control animal was faring.
Islet graft function was monitored by serial blood glucose measurements daily for the first 2 weeks after islet transplantation, followed by every other day thereafter. Reversal of diabetes was defined as blood a glucose level of less than 200 mg/dl on two consecutive measurements. Graft loss was determined when blood glucose exceeded 250 mg/dl on two consecutive measurements.

[2] = Solubility of TTP-4000 in formulation buffers; assay type: physicochemical; conditions: citrate versus histidine buffers
Description: Formulations containing sodium acetate, sodium citrate, sodium phosphate, sodium succinate, histidine, and sodium chloride were tested along with sucrose and mannitol. Various pH's between 5.5 and 7.0 were also evaluated.
Based on the solubility of the RAGE fusion protein in formulations containing one or more of sodium citrate, histidine, sucrose, mannitol, and Tween 80 at a pH of 7.0 or less, formulations containing one or more of these buffers, lyoprotectants, or surfactant were selected for further study.

[3] = test system: recurrent diabetes in syngeneic NOD transplant model; test: Syngeneic islet transplantation in NOD mice; assay type: in vivo
Source text: Spontaneous autoimmune non-obese diabetic mice (NOD/LtJ) (12-25 weeks old) served as recipients for islet cells, while young pre-diabetic NOD/LtJ mice (6-7 weeks old) served as donors in syngeneic islet transplantation. Islets for transplantation were isolated as described above in Section A (Allogeneic Islet Transplantation). Diabetic NOD/LtJ mice received islet grafts within 2 days of the diagnosis of diabetes. 500-600 freshly isolated islets (approximately 550 islet equivalents) from donor mice were picked up with an infusion set and transplanted into the subcapular space of the right kidney. Test compounds were administered as soon as the islets were transplanted and continued for approximately 8 weeks. […] Islet graft function was monitored by serial blood glucose measurements daily for the first 2 weeks after islet transplantation, followed by every other day thereafter. Reversal of diabetes was defined as blood glucose less than 200 mg/dl on two consecutive measurements. Percentage graft loss was determined when blood glucose exceeded 250 mg/dl on two consecutive measurements.

Fc receptor = Fc receptor activation: TNF-α secretion from THP-1 cells; assay type: cell-based
Source text: Fc stimulation results in TNF-α secretion.

[4] = Pharmacokinetic profile of TTP-4000 after IV injection; assay type: in vivo, monkeys; conditions: single IV bolus 5 mg/kg; once TTP-4000 has saturated its ligands; plasma ELISA
Description: Following collection, the tubes were placed on wet ice (maximum 30 minutes) until centrifugation under refrigeration (at 2 to 8° C.) at 1500×g for 15 minutes. Each harvested plasma sample was then stored frozen (−70° C.±10° C.) until assayed for RAGE polypeptide using an ELISA at various time-points following the injection, as described in Example 6.
In FIG. 12 each curve represents a different animal under the same experimental conditions.
Initially, 50 uL of the RAGE specific monoclonal antibody 1HB1011 at a concentration of 10 ug/mL in 1× PBS pH 7.3 is coated on plates via overnight incubation. When ready for use, plates are washed three times with 300 uL of 1× Imidazole-Tween wash buffer and blocked with 1% BSA. […] The samples are allowed to incubate at room temperature for one hour. After incubation, the plates are plates are washed three times. A Goat Anti-human IgG1 1 (Sigma A3312) AP conjugate in 1×PBS with 1% BSA is added and allowed to incubate at room temperature for 1 hour. The plates are washed three times. Color was elucidated with paranitrophenylphosphate.

[5] = 300 ug LD + 100 ug qod ip, syngeneic islets in NOD mice

B1: TTP-4000: four domain RAGE fusion protein: human RAGE N-terminal sequence (to position 251) linked to human IgG Fc (γ1) without hinge; SEQ ID NO: 34/56 (protein)
chain: QNITARIGEPLVLKCKGAPKKPPQRLEWKLNTGRTEAWKVLSPQGGGPWDSVARVLPNGSLFLPAVGIQDEGIFRCQAMNRNGKETKSNYRVRVYQIPGKPEIVDSASELTAGVPNKVGTCVSEGSYPAGTLSWHLDGKPLVPNEKGVSVKEQTRRHPETGLFTLQSELMVTPARGGDPRPTFSCSFSPGLPRHRALRTAPIQPRVWEPVPLEEVQLVVEPEGGAVAPPSVFLFPPKPKDTLMISRTPEVTCVVVDVSHEDPEVKFNWYVDGVEVHNAKTKPREEQYNSTYRVVSVLTVLHQDWLNGKEYKCKVSNKALPAPIEKTISKAKGQPREPQVYTLPPSRDELTKNQVSLTCLVKGFYPSDIAVEWESNGQPENNYKTTPPVLDSDGSFFLYSKLTVDKSRWQQGNVFSCSVMHEALHNHYTQKSLSLSPGK
[1]; 300 ug + 30 ug qod ip
  day of graft loss for each animal: 12 day (2×) and 11 day (2×) and 8 day (2×) and 13 day and 14 day
  day of graft loss, Mean: 11.125 days
[1]; 300 ug LD + 100 ug qod ip
  day of graft loss for each animal: 13 day (2×) and 12 day and 16 day (2×) and 15 day and 14 day (2×)
  day of graft loss, Mean: 14.125 days
[1]; Groups 1 and 3 versus untreated, PBS or human IgG1
  time before detection of graft failure, in words: increase in the time before detection of graft failure
[2]
  solubility in formulations, in words: may be more soluble in formulations containing histidine
[3]; [5]
  day of graft loss for each animal: 40 day and 43 day and 36 day and 45 day and 44 day and 38 day (2×) and 35 day
  day of graft loss, Mean: 39.875 days
[3]; versus animals not treated at all
  time before detection of graft failure, in words: increase in the time before detection of graft failure
Fc receptor; conditions where human IgG stimulation of TNF-α release is detected
  stimulation of TNF-α release from cells: does not stimulate TNF-α release
Fc receptor; well precoated with 10 ug/well heat aggregated protein, THP-1 cells, 24 hours
  TNF generated: less than 2 ng/well
[4]
  terminal half-life: greater than 300 hours
